This note sets out measurements from PMC2504306 (Nucleic Acids Research, 2008).

Like-named read-outs stand apart in the source and are kept apart here.

Assay in all cases: SPR
(In general: Surface plasmon resonance follows binding to a sensor surface in real time, without labels.)

Test [1] has as its target C-terminal topoisomerase domain of Sulfolobus solfataricus reverse gyrase TopR1 (Sulfolobus solfataricus P2) (UniProt Q97ZZ8).
The target of test [2] is T1, C-terminal topoisomerase domain of Sulfolobus solfataricus reverse gyrase TopR1 (Sulfolobus solfataricus P2, UniProt Q97ZZ8 605-1242).
T1 sequence (looked up): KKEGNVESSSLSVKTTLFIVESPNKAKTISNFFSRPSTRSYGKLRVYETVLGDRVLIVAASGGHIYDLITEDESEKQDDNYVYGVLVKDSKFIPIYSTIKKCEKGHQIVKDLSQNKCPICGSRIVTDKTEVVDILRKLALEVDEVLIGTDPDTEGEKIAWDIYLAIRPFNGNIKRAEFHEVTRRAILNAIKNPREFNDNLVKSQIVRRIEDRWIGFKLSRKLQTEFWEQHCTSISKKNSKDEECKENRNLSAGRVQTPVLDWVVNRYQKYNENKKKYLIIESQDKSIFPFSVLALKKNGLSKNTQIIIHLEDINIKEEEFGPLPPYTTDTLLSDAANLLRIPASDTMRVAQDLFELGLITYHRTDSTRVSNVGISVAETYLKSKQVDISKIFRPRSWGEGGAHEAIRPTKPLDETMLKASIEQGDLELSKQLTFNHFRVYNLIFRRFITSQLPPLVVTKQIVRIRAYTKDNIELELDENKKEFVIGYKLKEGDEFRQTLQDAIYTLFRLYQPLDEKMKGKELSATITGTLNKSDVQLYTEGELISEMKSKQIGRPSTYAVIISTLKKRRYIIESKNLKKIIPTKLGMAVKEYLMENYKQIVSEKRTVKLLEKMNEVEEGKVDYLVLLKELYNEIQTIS

In test [3] the target is T1, C-terminal topoisomerase domain of …. This is another data set of the same source.
The target is the same in test [4]. This is another data set of the same source.

The term Kd denotes the constant that tells how readily two partners part at equilibrium. By koff is commonly meant a measure of how fast the partners let go of each other. The kon is the second-order rate constant of association. In test [1], “non-specific DNA-binding protein Smj12 of S. solfataricus (natural protein)” gave a Ka of 284 M⁻¹, an equilibrium dissociation constant (Kd) of 3530 µM, a koff of 0.00313 s⁻¹ and a kon of 0.887 M⁻¹ s⁻¹.

B1: N-terminal ATPase (helicase-like) domain of Sulfolobus solfataricus reverse gyrase TopR1 (domain or fragment, Sulfolobus solfataricus P2, UniProt Q97ZZ8 1-607, looked up)
chain: MTSINKVPPSIYTRSCPNCGGNISSQRLFNGSVCESCLKDDREFSNLSDLINILSENSNLKNLTQIRDVLEEYKKVEEIFGKLLNNSKPIGPQRSWTIRFLRGESFAIIAPPGLGKTTFGLIMSLYNATRNRKSIIIFPTRTLISQTVDKLAKFSELYSYSPRILYNKQSPTQTENILDQLKSGNFDIFISTNRFVIQNLSELSNIKFDFIFVDDVDAALKSGKSAKAILRLVGFTDEDIQTTMKLLRENIGEEEKFGKIQEIRESRLKDKIVIFSSATISRGNPILSSLMGFRPGSSVIYLRNIYDSYIDLTQTCKGQDFEECTLGTVIKLLKRLNDGTLIFVPIDKGAQYADYLASNLRDHGINVESVASSSISKLEKFERGEVSSLVGVATHYGVLVRGIDLPWRVKYSIFVGIPKFKFKIGEYMHPLALTRLLSLVYLVKNDDKVRGLLSYIRKRLRKISPAALAMLAKDIREGKIDDERLKEAYNLVNEYLKDNEFLKKVSDVGDLVIEGDYILMPDYLTYIQASGRTSRLYGANLTTGLSVLLIDNSRLFELLNKKLNLILDEVKWYSLDIDADKLGQVSLSDISAKITEERESLSKIKKE
In test [2], B1 displayed a Ka of 2.87e+06 M⁻¹, a dissociation constant Kd of 0.349 µM, an off-rate (koff) of 0.00152 s⁻¹ and a kon of 4350 M⁻¹ s⁻¹. In test [3], this molecule displayed a Ka of 6.32e+06 M⁻¹, a dissociation constant Kd of 0.158 µM, a koff of 0.00109 s⁻¹ and an on-rate (kon) of 6900 M⁻¹ s⁻¹. In test [4], this molecule registered a Ka of 7.59e+06 M⁻¹, an equilibrium dissociation constant (Kd) of 0.132 µM, an off-rate constant (koff) of 0.00187 s⁻¹ and an association rate constant (kon) of 14200 M⁻¹ s⁻¹.
